The source of these data is PMC3633684.

Substrate in the series: CC(=O)Oc1ccc([N+](=O)[O-])cc1
In words: purified protein. In kind it is biochemical, Caulobacter vibrioides. The note with it: 40 mM phosphate buffer pH 7.4, 37 °C, 0.2 μM HfsH.

The term Km denotes the concentration of substrate that gives half-maximal velocity.

B1: HfsH (Caulobacter vibrioides CB15) (protein)
chain: MPMEFEKVDAYEPDRSLKGKLRRRLIRLAHRRPAKVALERPMVSFSFDDAPATACEAGARALEARGLRGTYYFAAGLTGRDGPMGRYATGEDARRLHEAGHEIACHTYSHLDCGQSSQTETLADVDRNAESLAAWGAGDPVSFAYPYGDVAAPAKTALSGRFKTLRALHHGLITDGADLNQTPAVGIEGEDGETVAKAWLDKAKARKAWLILYTHDVAGQPSQWGCTTEALERLIDRALADGFDVVTVAEGSRRIGL
For the protein B1, the Km amounted to 11.74 mM.
